According to patent US20250282866A1 (VIGIL NEUROSCIENCE, published 2025):
Positions count from the first letter of the chain named.

T1: human TREM2 (human, UniProt Q9NZC2 19-174, limits assumed)
T1 construct: also called triggering receptor expressed on myeloid cells 2
T1 sequence: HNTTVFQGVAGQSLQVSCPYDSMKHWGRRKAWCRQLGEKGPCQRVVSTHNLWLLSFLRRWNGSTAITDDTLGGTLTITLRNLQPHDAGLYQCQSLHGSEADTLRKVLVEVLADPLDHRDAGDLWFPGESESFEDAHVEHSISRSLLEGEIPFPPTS

B1: V1 (antibody, V domains shown)
VH: EVQLVQSGAEVKKPGESLKISCKGSGYSFTSSWIAWVRQMPGKGLEWMGIIYPGDSDTRYSPSFQGQVTISADKSISTAYLQWSSLKASDTAMYFCARSRTFYYDSSDYFDYWGQGTLVTVSS
VL: DIQMTQSPSSVSASVGDRVTITCRASQGISSWLAWYQQKPGKAPKLLIYAASSLTNGVPSRFSGSGSGTDFTLTISSLQPEDFATYFCQQADSYPRTFGQGTKLEIK
B2: V39 (antibody, V domains shown)
VH: B1 VH with T30G, S32Y, S61N, S99G
VL: B1 VL with T55V, Y94S
B3: V2 (antibody, V domains shown)
VH: B1 VH with Y27S, S32Y, S56G
VL: B1 VL with L54R, T55Q, S93R, Y94F
B4: V26 (antibody, V domains shown)
VH: B1 VH with S32Y, A35G, I50T, S99Q, F102M, Y112A
VL: B1 VL with T55Q, N56R
B5: V14 (antibody, V domains shown)
VH: B1 VH with T30G, S32Y, S56Q, S99G
VL: B1 VL with S53R, T55Q, Y94F
B6: V4 (antibody, V domains shown)
VH: B1 VH with T30G, S32Y, Y60V
VL: B1 VL with S53R, T55Q
B7: V24 (antibody, V domains shown)
VH: B1 VH with S32Y, T58V
VL: B1 VL with T55Q, N56K, Y94F, R96H
B8: V41 (antibody, V domains shown)
VH: B1 VH with S32Y, I50T, S99Q
VL: B1 VL with T55Q, Y94F
B9: V15 (antibody, V domains shown)
VH: B1 VH with T30A, S32Y, I50T
VL: B1 VL with S53W, T55Q
B10: V5 (antibody, V domains shown)
VH: B1 VH with S32Y, I50T, S99Q
VL: B1 VL with T55Q, Y94H
B11: V25 (antibody, V domains shown)
VH: B1 VH with T30G, S32Y, I50L
VL: B1 VL with T55A, Y94M
B12: V28 (antibody, V domains shown)
VH: B1 VH with T30Q, S32Y, I50T, S99Q, Y103F
VL: B1 VL with T55Q, N56S, Y94L
B13: V27 (antibody, V domains shown)
VH: B1 VH with S32Y, S61A, A97V
VL: B1 VL with T55Q, N56R, Y94F
B14: V16 (antibody, V domains shown)
VH: B1 VH with F29M, S32Y, S56G
VL: B1 VL with S53N, T55Q, Y94F
B15: V40 (antibody, V domains shown)
VH: B1 VH with T30G, S32Y, T58V, S99Q, F110S
VL: B1 VL with T55Q, N56L, S93R, Y94F
B16: V36 (antibody, V domains shown)
VH: B1 VH with S32Y, I34L
VL: B1 VL with L54R, T55Q
B17: V17 (antibody, V domains shown)
VH: B1 VH with T30G, S32Y
VL: B1 VL with L54R, T55Q, Y94S
B18: V37 (antibody, V domains shown)
VH: B1 VH with F29H, S32Y, Q65A
VL: B1 VL with T55Q, N56W
B19: V38 (antibody, V domains shown)
VH: B1 VH with T30G, S32Y, T58V, S99Q
VL: B1 VL with L54R, T55Q, Y94H
B20: V29 (antibody, V domains shown)
VH: B1 VH with T30K, S32Y, S99Q
VL: B1 VL with T55Q, Y94F
B21: V13 (antibody, V domains shown)
VH: B1 VH with T30G, S32Y, P62A, S99G
VL: B1 VL with T55Q, N56G, Y94M
B22: V3 (antibody, V domains shown)
VH: B1 VH with T30A, S32Y, G66D, S99G
VL: B1 VL with L54R, T55Q, S93R, Y94F
B23: V92 (antibody, V domains shown)
VH: B1 VH with S32Y, S99Q, Y103H
VL: B1 VL with T55Q, Y94F
B24: V81 (antibody, V domains shown)
VH: B1 VH with S32Y, S99Q
VL: B1 VL with W32L, T55Q, Y94F
B25: V79 (antibody, V domains shown)
VH: B1 VH with S32Y, R59N, S99Q
VL: B1 VL with T55Q, Y94F
B26: V91 (antibody, V domains shown)
VH: B1 VH with S32Y, G54D, S99Q
VL: B1 VL with T55Q, Y94F
B27: V90 (antibody, V domains shown)
VH: B1 VH with S32E, S99Q
VL: B1 VL with S31R, T55Q, Y94F
B28: V93 (antibody, V domains shown)
VH: B1 VH with S32Y, S99Q
VL: B1 VL with S31G, T55Q, Y94F
B29: V83 (antibody, V domains shown)
VH: B1 VH with S32Y, S99Q
VL: B1 VL with T55Q, D92V, Y94F
B30: V82 (antibody, V domains shown)
VH: B1 VH with S32Y, S99Q
VL: B1 VL with A51G, T55Q, Y94F
B31: V94 (antibody, V domains shown)
VH: B1 VH with S32Y, S99Q
VL: B1 VL with S52A, T55Q, Y94F
B32: V80 (antibody, V domains shown)
VH: B1 VH with S32Y, S99Q, T101N
VL: B1 VL with T55Q, Y94F

The binders below were run against T1, human TREM2 (assay: 2nd screen 2 nM).

| Binding Signal (fold over 6E7 Parental antibody) [fold] | Binder |
| --- | --- |
| 1.29 | B1 |
| 5.11 | B2 |
| 2.23 | B3 |
| 2.83 | B4 |
| 2.57 | B5 |
| 5.88 | B6 |
| 1.42 | B7 |
| 0.58 | B8 |
| 4.72 | B9 |
| 1.25 | B10 |
| 3.15 | B11 |
| 2.63 | B12 |
| 5.67 | B13 |
| 3.57 | B14 |
| 3.41 | B15 |
| 4 | B16 |
| 4.22 | B17 |
| 3.69 | B18 |
| 3.44 | B19 |
| 0.84 | B20 |
| 1.15 | B21 |
| 1.95 | B22 |

These binders were tested against T1, human TREM2 (assay: 2nd screen 10 nM).

| Binding Signal (fold over 6E7 Parental antibody) [fold] | Binder |
| --- | --- |
| 1.92 | B1 |
| 5.81 | B2 |
| 2.9 | B3 |
| 3.47 | B4 |
| 4.64 | B5 |
| 5.51 | B6 |
| 2.9 | B7 |
| 1.72 | B8 |
| 4.78 | B9 |
| 2.84 | B10 |
| 4.7 | B11 |
| 3.61 | B12 |
| 5.69 | B13 |
| 4.04 | B14 |
| 4.16 | B15 |
| 3.44 | B16 |
| 5.51 | B17 |
| 3.49 | B18 |
| 4.36 | B19 |
| 1.67 | B20 |
| 1.35 | B21 |
| 2.24 | B22 |

The binders below were run against T1, human TREM2 (assay: 2nd screen 100 nM).

| Binding Signal (fold over 6E7 Parental antibody) [fold] | Binder |
| --- | --- |
| 0.65 | B23 |
| 0.23 | B24 |
| 0.52 | B25 |
| 0.61 | B26 |
| 0.36 | B27 |
| 1.05 | B28 |
| 0.29 | B29 |
| 0.79 | B30 |
| 0.87 | B31 |
| 0.5 | B32 |

What follows are binders tested against T1, human TREM2 (assay: 1st screen (110 nM or 10 nM)).

| Binding Signal (fold over 6E7 Parental antibody) [fold] | Binder |
| --- | --- |
| 1.68 | B1 |
| 6.15 | B2 |
| 2.55 | B3 |
| 0.22 | B23 |
| 3.57 | B4 |
| 4.71 | B5 |
| 0.17 | B24 |
| 0.7 | B25 |
| 6 | B6 |
| 2.64 | B7 |
| 1.74 | B8 |
| 5.23 | B9 |
| 0.25 | B26 |
| 2.73 | B10 |
| 4.23 | B11 |
| 3.08 | B12 |

| Binding Signal (fold over 6E7 Parental antibody) [fold] | Binder |
| --- | --- |
| 5.5 | B13 |
| 4.01 | B14 |
| 4.48 | B15 |
| 3.38 | B16 |
| 5.37 | B17 |
| 3.46 | B18 |
| 0.33 | B27 |
| 0.35 | B28 |
| 0.2 | B29 |
| 4.34 | B19 |
| 1.53 | B20 |
| 1.31 | B21 |
| 0.3 | B30 |
| 0.31 | B31 |
| 1.97 | B22 |
| 0.59 | B32 |
